Laboratory results published in patent US20150344570A1 (published 2015).

B1: GpH7-A5/GpH7-B3 variant A327_12R/GpL16-k0 (antibody, human IgG1, kappa)
heavy 1: not shown
heavy 2: not shown
light: DIVMTQSPLSLPVTPGEPASISCQASESLVHSNRNTYLHWYLQKPGQSPQLLIYKVSNRFSGVPDRFSGSGSGTDFTLKISRVEAEDVGVYYCSQNTHVPPTFGQGTKVEIERTVAAPSVFIFPPSDEQLKSGTASVVCLLNNFYPREAKVQWKVDNALQSGNSQESVTEQDSKDSTYSLSSTLTLSKADYEKHKVYACEVTHQGLSSPVTKSFNRGEC
notes: Heterodimerized anti-glypican-3 IgG1; mutation in the GpH7-B3 chain only; also called He Ab
B2: GpH7-A5/GpH7-B3 variant L328_11K/GpL16-k0 (antibody, human IgG1, kappa)
heavy 1: not shown
heavy 2: not shown
light: B1 light
notes: as for B1
B3: GpH7-A5/GpH7-B3 variant L328_12R/GpL16-k0 (antibody, human IgG1, kappa)
heavy 1: not shown
heavy 2: not shown
light: B1 light
notes: as for B1
B4: GpH7-A5/GpH7-B3 variant Y300_05P/GpL16-k0 (antibody, human IgG1, kappa)
heavy 1: not shown
heavy 2: not shown
light: B1 light
notes: Heterodimerized IgG1 antibody; alteration in the GpH7-B3 chain only; also called He Ab
B5: GpH7-A5/GpH7-B3 variant S267_08L/GpL16-k0 (antibody, human IgG1, kappa)
heavy 1: not shown
heavy 2: not shown
light: B1 light
notes: as for B1
B6: GpH7-A5/GpH7-B3 variant A327_07I/GpL16-k0 (antibody, human IgG1, kappa)
heavy 1: not shown
heavy 2: not shown
light: B1 light
notes: as for B1
B7: GpH7-A5/GpH7-B3 variant A327_09D/GpL16-k0 (antibody, human IgG1, kappa)
heavy 1: not shown
heavy 2: not shown
light: B1 light
notes: as for B1
B8: GpH7-A5/GpH7-B3 variant A327_10E/GpL16-k0 (antibody, human IgG1, kappa)
heavy 1: not shown
heavy 2: not shown
light: B1 light
notes: as for B1
B9: GpH7-A5/GpH7-B3 variant A327_12R/GpL16-k0 (antibody, human IgG1, kappa)
heavy 1: not shown
heavy 2: not shown
light: B1 light
notes: as for B1
B10: GpH7-A5/GpH7-B3 variant A327_18N/GpL16-k0 (antibody, human IgG1, kappa)
heavy 1: not shown
heavy 2: not shown
light: B1 light
notes: as for B1
B11: GpH7-A5/GpH7-B3 variant D270_05P/GpL16-k0 (antibody, human IgG1, kappa)
heavy 1: not shown
heavy 2: not shown
light: B1 light
notes: as for B1
B12: GpH7-A5/GpH7-B3 variant G236_09D/GpL16-k0 (antibody, human IgG1, kappa)
heavy 1: not shown
heavy 2: not shown
light: B1 light
notes: as for B1
B13: GpH7-A5/GpH7-B3 variant G237_09D/GpL16-k0 (antibody, human IgG1, kappa)
heavy 1: not shown
heavy 2: not shown
light: B1 light
notes: as for B1
B14: GpH7-A5/GpH7-B3 variant G237_20W/GpL16-k0 (antibody, human IgG1, kappa)
heavy 1: not shown
heavy 2: not shown
light: B1 light
notes: as for B1
B15: GpH7-A5/GpH7-B3 variant H268_02A/GpL16-k0 (antibody, human IgG1, kappa)
heavy 1: not shown
heavy 2: not shown
light: B1 light
notes: as for B1
B16: GpH7-A5/GpH7-B3 variant H268_09D/GpL16-k0 (antibody, human IgG1, kappa)
heavy 1: not shown
heavy 2: not shown
light: B1 light
notes: as for B1
B17: GpH7-A5/GpH7-B3 variant H268_10E/GpL16-k0 (antibody, human IgG1, kappa)
heavy 1: not shown
heavy 2: not shown
light: B1 light
notes: as for B1

What follows are binders tested against T1, FcγRIIIa extracellular domain with C-terminal His tag (human, UniProt P08637 17-208) (assay: SPR (Biacore); He/Con_3a divided by He/Con_2b (FcγRIIIa against FcγRIIb)).
T1 construct: extracellular domain; also called FcgRIIIa; 3a
Experimental: (§1) The heterodimerized antibodies He Abs in which one of the H chains was introduced with an alteration were assayed for their binding activities to each activating FcγR and inhibitory FcγR according to the method described in Example 4. […] The activating FcγRs in FIGS. 26, 27, 28, and 29 are FcγRIa, FcγRIIa (R), FcγRIIa (H), and FcγRIIIa, respectively.
(§2) Analysis of interaction between objective antibody and the FcγR was carried out using Biacore T100 (GE Healthcare). HBS-EP+ (GE Healthcare) was used as the running buffer, and the measurement temperature was set to 25° C. Chips produced by immobilizing the antigen peptide by the amine coupling method to a Series S Sencor Chip CM5 (GE Healthcare), or alternatively, chips produced by allowing preliminarily biotinylated antigen peptides to interact with and immobilize onto a Series S Sensor Chip SA (certified) (GE Healthcare) were used. Antibodies of interest were captured onto an antigen peptide-immobilized chip, and allowed to interact to each FcγR diluted with running buffer. To regenerate and repeatedly use the chip, the antibodies captured on the chip were washed off by reacting 10 mM glycine-HCl, pH 1.5.
T1 sequence (P08637 17-208): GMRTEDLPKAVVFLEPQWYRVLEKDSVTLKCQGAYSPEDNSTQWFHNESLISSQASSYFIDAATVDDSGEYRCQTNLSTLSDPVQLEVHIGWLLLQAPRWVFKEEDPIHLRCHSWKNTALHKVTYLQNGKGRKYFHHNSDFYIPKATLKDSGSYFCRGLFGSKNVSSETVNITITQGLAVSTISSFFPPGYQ
In the case of B1, the “He_3a/2b (IIIa/IIb)” value is reported as 2.15 ratio.
For B2, the “He_3a/2b (IIIa/IIb)” value was 4.46 ratio.
B3 was tested, and the “He_3a/2b (IIIa/IIb)” value was 3.53 ratio.

Each binder was assayed against T1, FcγRIIIa extracellular domain with … (assay: SPR (Biacore), antibody captured on antigen peptide chip, FcγR as analyte; GpH7-A5/GpH7-B3/GpL16-k0 = 100).
Experimental: as §1, §2
B1 was tested, and the “He/Con_3a (relative binding activity)” value was 19.3 % of control.
B2 was tested, and the “He/Con_3a (relative binding activity)” value was 33.5 % of control.
B3 was tested, and the “He/Con_3a (relative binding activity)” value was 32.7 % of control.

These binders were tested against T2, FcγRIIIa extracellular domain with C-terminal His tag (human, UniProt P08637 17-208) (assay: SPR (Biacore); He/Con_3a divided by He/Con_2b (FcγRIIb)).
T2 construct: extracellular domain; also called FcgRIIIa; 3a; not shown: His tag at the C terminus
T2 sequence (P08637 17-208): as above
B4 was tested, and the “He_3a/2b (IIIa/IIb)” value was 0.38 ratio.

These binders were tested against T3, FcγRIIb (human, UniProt P31994 43-217) (assay: SPR, relative to GpH7-A5/GpH7-B3/GpL16-k0).
T3 construct: extracellular domain; also called FcgRIIb; 2b; not shown: His tag at the C terminus
T3 sequence (looked up): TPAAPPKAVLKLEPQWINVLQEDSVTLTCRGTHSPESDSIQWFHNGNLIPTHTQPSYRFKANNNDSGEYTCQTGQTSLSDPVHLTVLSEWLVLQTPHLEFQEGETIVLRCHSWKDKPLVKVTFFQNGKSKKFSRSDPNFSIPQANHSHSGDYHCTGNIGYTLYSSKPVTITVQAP
In the case of B5, the He/Con_2b is reported as 109 control = 100.
In the case of B6, the He/Con_2b is reported as 127 control = 100.
Work on B7 yielded a He/Con_2b of 172 control = 100.
Binder B8 has a He/Con_2b of 140 control = 100.
B9 gave a He/Con_2b of 9 control = 100.
With B10 the He/Con_2b was 113 control = 100.
Work on B11 yielded a He/Con_2b of 13.9 control = 100.
Binder B12 has a He/Con_2b of 167 control = 100.
B13 showed a He/Con_2b of 223 control = 100.
Binder B14 has a He/Con_2b of 193 control = 100.
Binder B15 has a He/Con_2b of 167 control = 100.
For B16, the He/Con_2b was 239 control = 100.
B17 gave a He/Con_2b of 230 control = 100.

These binders were tested against T4, FcγRIIa R (human, UniProt P12318 34-217) (assay: SPR, relative to GpH7-A5/GpH7-B3/GpL16-k0).
T4 construct: extracellular domain; also called FcgRIIa R type; 2aR; not shown: His tag at the C terminus
T4 sequence (looked up): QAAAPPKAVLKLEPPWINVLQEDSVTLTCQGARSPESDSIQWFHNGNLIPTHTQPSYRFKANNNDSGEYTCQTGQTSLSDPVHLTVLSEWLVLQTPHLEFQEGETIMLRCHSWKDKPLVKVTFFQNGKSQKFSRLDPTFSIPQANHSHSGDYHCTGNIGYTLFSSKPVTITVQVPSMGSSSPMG
B5 was tested, and the He/Con_2aR was 72.1 control = 100.
For B6, the He/Con_2aR was 98 control = 100.
In the case of B7, the He/Con_2aR is reported as 124 control = 100.
For B8, the He/Con_2aR was 110 control = 100.
In the case of B9, the He/Con_2aR is reported as 6 control = 100.
Binder B10 has a He/Con_2aR of 88.9 control = 100.
For B11, the He/Con_2aR was 7.5 control = 100.
With B12 the He/Con_2aR was 106 control = 100.
Work on B13 yielded a He/Con_2aR of 156 control = 100.
In the case of B14, the He/Con_2aR is reported as 138 control = 100.
For B15, the He/Con_2aR was 133 control = 100.
B16 showed a He/Con_2aR of 149 control = 100.
Binder B17 has a He/Con_2aR of 148 control = 100.

Each binder was assayed against T4, FcγRIIa R (assay: SPR; He/Con_2aR divided by He/Con_2b (FcγRIIa R over FcγRIIb)).
B5 gave a He_2aR/2b of 0.66 ratio.
Work on B6 yielded a He_2aR/2b of 0.77 ratio.
B7 was tested, and the He_2aR/2b was 0.72 ratio.
B8 showed a He_2aR/2b of 0.78 ratio.
Binder B9 has a He_2aR/2b of 0.67 ratio.
In the case of B10, the He_2aR/2b is reported as 0.79 ratio.
Work on B11 yielded a He_2aR/2b of 0.54 ratio.
For B12, the He_2aR/2b was 0.64 ratio.
Work on B13 yielded a He_2aR/2b of 0.7 ratio.
B14 gave a He_2aR/2b of 0.71 ratio.
B15 showed a He_2aR/2b of 0.8 ratio.
Work on B16 yielded a He_2aR/2b of 0.62 ratio.
Work on B17 yielded a He_2aR/2b of 0.64 ratio.

The binders below were run against T2, FcγRIIIa extracellular domain with … (assay: SPR (Biacore), FcγR as analyte over captured antibody; GpH7-A5/GpH7-B3/GpL16-k0 = 100).
Experimental: as §1, §2
In the case of B4, the He/Con_3a is reported as 2.8 % of control.
